We go through 4 molecules from paper PMC9482650, “Quantitative fragmentomics allow affinity mapping of interactomes” (Nature Communications, 2022).

Targets include MAGI2_5, Q86UL8; NHERF4_2, Q86UT5; TJP1_2, Q07157; AHNAK1, Q09666; DLG1_3, Q12959; NOS1, P29475; PICK1, Q9NRD5; IL16_3, Q14005; MAST1, Q9Y2H9; PTPN3, P26045; DLG2_3, Q15700; HTRA1, Q92743.
Common to all, as to assay: holdup assay
Holding throughout (set-up): key: below the threshold = too weak to quantify, mostly under pKd 3.1 to 4
Holding throughout (details): plain residues with an end cap or a label only (N-terminal biotin on a linker: ado-ado)

Another test has as its target T1, DLG3_1, Q92796.
T1 sequence (Q92796 125-227, limits assumed, looked up): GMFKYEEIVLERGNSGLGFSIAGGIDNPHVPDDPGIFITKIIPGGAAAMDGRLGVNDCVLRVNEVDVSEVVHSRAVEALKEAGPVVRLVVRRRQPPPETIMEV

For another test, the target named is T2, LRRC7, Q96NW7.
T2 sequence (Q96NW7 1440-1537, limits assumed, looked up): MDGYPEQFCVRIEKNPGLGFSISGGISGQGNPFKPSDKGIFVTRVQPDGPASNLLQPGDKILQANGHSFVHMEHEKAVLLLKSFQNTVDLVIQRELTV

The target of the next test is T3, MPDZ_5, O75970.
T3 sequence (O75970 695-796, limits assumed, looked up): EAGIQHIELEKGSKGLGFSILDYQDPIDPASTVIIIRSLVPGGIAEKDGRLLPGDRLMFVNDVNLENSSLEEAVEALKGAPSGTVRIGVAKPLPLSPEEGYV

In a further test the target is T4, LIN7A, O14910.
T4 sequence (O14910 103-200, limits assumed, looked up): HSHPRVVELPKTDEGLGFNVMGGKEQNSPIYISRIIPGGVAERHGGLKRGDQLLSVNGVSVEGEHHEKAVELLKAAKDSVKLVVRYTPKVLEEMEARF

The target in a further test is T5, PDZRN3_1, Q9UPQ7.
T5 sequence (Q9UPQ7 244-349, limits assumed, looked up): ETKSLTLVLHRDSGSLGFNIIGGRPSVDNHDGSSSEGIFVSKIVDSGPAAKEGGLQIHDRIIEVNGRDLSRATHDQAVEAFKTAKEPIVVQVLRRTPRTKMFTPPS

The next test has as its target T6, NHERF3_4, Q5T2W1.
T6 sequence (Q5T2W1 373-468, limits assumed, looked up): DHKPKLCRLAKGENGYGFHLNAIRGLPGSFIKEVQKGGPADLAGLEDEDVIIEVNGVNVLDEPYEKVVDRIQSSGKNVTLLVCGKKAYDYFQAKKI

A further test concerns the target T7, APBA3_1, O96018.
T7 sequence (O96018 389-490, limits assumed, looked up): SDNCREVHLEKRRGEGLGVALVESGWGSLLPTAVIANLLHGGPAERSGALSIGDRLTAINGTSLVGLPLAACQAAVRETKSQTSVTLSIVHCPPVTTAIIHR

For a further test, the target named is T8, DFNB31_3, Q9P202.
T8 sequence (Q9P202 811-907, limits assumed, looked up): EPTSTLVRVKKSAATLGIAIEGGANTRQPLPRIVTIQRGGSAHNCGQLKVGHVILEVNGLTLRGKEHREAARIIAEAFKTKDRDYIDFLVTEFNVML

The target in the next test is T9, MPDZ_12, O75970.
T9 sequence (O75970 1857-1958, limits assumed, looked up): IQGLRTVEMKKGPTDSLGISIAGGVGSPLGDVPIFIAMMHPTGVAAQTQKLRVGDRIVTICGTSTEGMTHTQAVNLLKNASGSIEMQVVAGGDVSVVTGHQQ

The next test addresses T10, TX1BP3, O14907.
T10 sequence (O14907 10-122, limits assumed, looked up): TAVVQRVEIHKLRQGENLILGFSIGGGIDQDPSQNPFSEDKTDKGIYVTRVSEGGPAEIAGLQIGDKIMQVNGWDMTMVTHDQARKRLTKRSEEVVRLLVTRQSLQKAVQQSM

Another test addresses T11, MPDZ_10, O75970.
T11 sequence (O75970 1624-1722, limits assumed, looked up): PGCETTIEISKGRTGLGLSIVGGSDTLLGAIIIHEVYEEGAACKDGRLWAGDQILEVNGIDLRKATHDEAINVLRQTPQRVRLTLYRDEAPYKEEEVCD

The target of a further test is T12, ARHGEF11, O15085.
T12 sequence (O15085 42-136, limits assumed, looked up): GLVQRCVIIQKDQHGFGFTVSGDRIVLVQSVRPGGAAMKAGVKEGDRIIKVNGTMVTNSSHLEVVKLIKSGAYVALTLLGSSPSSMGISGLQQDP

NHERF4_2, Q86UT5, sequence (Q86UT5 220-308): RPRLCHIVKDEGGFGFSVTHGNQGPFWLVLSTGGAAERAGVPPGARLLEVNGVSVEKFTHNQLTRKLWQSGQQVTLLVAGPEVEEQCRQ
DLG1_3, Q12959, sequence (Q12959 457-571): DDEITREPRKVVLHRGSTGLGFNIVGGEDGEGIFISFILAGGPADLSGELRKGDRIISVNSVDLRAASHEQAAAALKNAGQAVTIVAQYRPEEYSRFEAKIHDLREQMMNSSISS
PTPN3, P26045, sequence (P26045 505-587): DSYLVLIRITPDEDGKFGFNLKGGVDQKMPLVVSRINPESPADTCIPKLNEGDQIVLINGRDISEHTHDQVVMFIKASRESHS
HTRA1, Q92743, sequence (Q92743 360-477): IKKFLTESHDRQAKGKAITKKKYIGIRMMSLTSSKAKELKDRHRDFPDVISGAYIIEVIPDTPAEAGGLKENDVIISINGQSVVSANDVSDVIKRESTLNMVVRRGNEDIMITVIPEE
IL16_3, Q14005, sequence (Q14005 1107-1207): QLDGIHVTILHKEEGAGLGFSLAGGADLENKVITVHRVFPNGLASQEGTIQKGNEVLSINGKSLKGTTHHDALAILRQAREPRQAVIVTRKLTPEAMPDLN
NOS1, P29475, sequence (P29475 9-101): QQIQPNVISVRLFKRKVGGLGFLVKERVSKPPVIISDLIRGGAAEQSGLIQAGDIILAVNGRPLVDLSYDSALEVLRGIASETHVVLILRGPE
MAST1, Q9Y2H9, sequence (Q9Y2H9 962-1065): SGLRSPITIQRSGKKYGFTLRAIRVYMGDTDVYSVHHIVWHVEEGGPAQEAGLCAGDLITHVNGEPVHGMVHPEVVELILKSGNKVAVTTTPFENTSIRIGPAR
MAGI2_5, Q86UL8, sequence (Q86UL8 915-1017): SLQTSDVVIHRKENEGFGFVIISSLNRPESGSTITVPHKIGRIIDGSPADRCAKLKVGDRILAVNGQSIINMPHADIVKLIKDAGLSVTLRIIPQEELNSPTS
PICK1, Q9NRD5, sequence (Q9NRD5 17-115): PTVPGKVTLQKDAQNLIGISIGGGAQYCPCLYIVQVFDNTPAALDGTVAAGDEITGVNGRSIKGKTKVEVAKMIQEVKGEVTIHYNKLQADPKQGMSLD
TJP1_2, Q07157, sequence (Q07157 181-274): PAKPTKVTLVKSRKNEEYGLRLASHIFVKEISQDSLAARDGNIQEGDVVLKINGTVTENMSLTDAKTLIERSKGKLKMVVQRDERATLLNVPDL
AHNAK1, Q09666, sequence (Q09666 4-100): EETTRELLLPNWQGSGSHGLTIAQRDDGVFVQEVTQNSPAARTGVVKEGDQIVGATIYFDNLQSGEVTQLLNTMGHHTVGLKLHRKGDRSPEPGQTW

As to GDSSRKEYFI [GYPC, P04921], the negative-log Kd (pKd) entry in the test with MAGI2_5, Q86UL8 was “below the threshold”; in the test with NHERF4_2, Q86UT5, “below the threshold”; with DLG3_1, Q92796, “below the threshold”; with LRRC7, Q96NW7, “below the threshold”; with MPDZ_5, O75970, 4.66; in the test with TJP1_2, Q07157, “below the threshold”. Moreover, the pKd result was “below the threshold” with AHNAK1, Q09666; “below the threshold” with LIN7A, O14910; “below the threshold” with PDZRN3_1, Q9UPQ7; “below the threshold” in the test with DLG1_3, Q12959; 3.64 with NOS1, P29475; “below the threshold” with PICK1, Q9NRD5. The pKd result was “below the threshold” with NHERF3_4, Q5T2W1; “below the threshold” with APBA3_1, O96018; “below the threshold” with IL16_3, Q14005; 3.81 with DFNB31_3, Q9P202; 3.5 with MPDZ_12, O75970; “below the threshold” with TX1BP3, O14907. Besides, the pKd result is “below the threshold” in the test with MAST1, Q9Y2H9; 4.16 with PTPN3, P26045; “below the threshold” with MPDZ_10, O75970; 3.84 in the test with DLG2_3, Q15700; 4.74 with HTRA1, Q92743; “below the threshold” with ARHGEF11, O15085.

Regarding PSVYSRSQYV [CLDN8, P56748], the pKd entry is “below the threshold” with MAGI2_5, Q86UL8; “below the threshold” with NHERF4_2, Q86UT5; “below the threshold” in the test with DLG3_1, Q92796; “below the threshold” with LRRC7, Q96NW7; 4.18 in the test with MPDZ_5, O75970; “below the threshold” in the test with TJP1_2, Q07157. The pKd result with AHNAK1, Q09666 is “below the threshold”; with LIN7A, O14910 it was “below the threshold”; in the test with PDZRN3_1, Q9UPQ7, “below the threshold”; with DLG1_3, Q12959 it was “below the threshold”; in the test with NOS1, P29475, 3.99; with PICK1, Q9NRD5, “below the threshold”. Also, the pKd with NHERF3_4, Q5T2W1 is 4.13; with APBA3_1, O96018 it was “below the threshold”; with IL16_3, Q14005 it was “below the threshold”; with DFNB31_3, Q9P202, “below the threshold”; with MPDZ_12, O75970, “below the threshold”; with TX1BP3, O14907, “below the threshold”. In addition, the pKd with MAST1, Q9Y2H9 was 3.95; in the test with PTPN3, P26045, “below the threshold”; with MPDZ_10, O75970 it was “below the threshold”; with DLG2_3, Q15700, “below the threshold”; with HTRA1, Q92743 it was 5.03; in the test with ARHGEF11, O15085, 4.16.

As for SRPHTNETSL [MCC, P23508], the pKd with MAGI2_5, Q86UL8 was 3.72; with NHERF4_2, Q86UT5, “below the threshold”; in the test with DLG3_1, Q92796, “below the threshold”; with LRRC7, Q96NW7 it was “below the threshold”; with MPDZ_5, O75970, “below the threshold”; with TJP1_2, Q07157, “below the threshold”. Moreover, the pKd entry was “below the threshold” in the test with AHNAK1, Q09666; “below the threshold” with LIN7A, O14910; 4.99 with PDZRN3_1, Q9UPQ7; 3.73 with DLG1_3, Q12959; “below the threshold” with NOS1, P29475; “below the threshold” with PICK1, Q9NRD5. Further, the pKd result in the test with NHERF3_4, Q5T2W1 is “below the threshold”; with APBA3_1, O96018, “below the threshold”; with IL16_3, Q14005, “below the threshold”; with DFNB31_3, Q9P202 it was “below the threshold”; in the test with MPDZ_12, O75970, “below the threshold”; in the test with TX1BP3, O14907, 4.12. The pKd with MAST1, Q9Y2H9 was 4.96; with PTPN3, P26045, 4.9; with MPDZ_10, O75970, “below the threshold”; with DLG2_3, Q15700, 3.95; in the test with HTRA1, Q92743, “below the threshold”; with ARHGEF11, O15085 it was 4.3.

QLGSPTADLA [SIPA1, Q96FS4]: the pKd entry is reported as “below the threshold” with MAGI2_5, Q86UL8; “below the threshold” with NHERF4_2, Q86UT5; “below the threshold” in the test with DLG3_1, Q92796; “below the threshold” in the test with LRRC7, Q96NW7; “below the threshold” in the test with MPDZ_5, O75970; “below the threshold” with TJP1_2, Q07157. The pKd entry was “below the threshold” with AHNAK1, Q09666; “below the threshold” with LIN7A, O14910; “below the threshold” with PDZRN3_1, Q9UPQ7; “below the threshold” with DLG1_3, Q12959; “below the threshold” with NOS1, P29475; “below the threshold” with PICK1, Q9NRD5. The pKd entry with NHERF3_4, Q5T2W1 was “below the threshold”; with APBA3_1, O96018, “below the threshold”; with IL16_3, Q14005 it was “below the threshold”; with DFNB31_3, Q9P202, 3.55; in the test with MPDZ_12, O75970 it was 3.75; with TX1BP3, O14907, “below the threshold”. The pKd with MAST1, Q9Y2H9 is 3.84; with PTPN3, P26045 it was “below the threshold”; with MPDZ_10, O75970, “below the threshold”; with DLG2_3, Q15700, 3.57; with HTRA1, Q92743, “below the threshold”; with ARHGEF11, O15085 it was “below the threshold”.
